Measurements published in US20220048996A1.

How the values were obtained:
[1] = biological target: cynomolgus OX40 expressed on DO11.10 cells (DO11.10-cOX40) (cynomolgus); test: flow cytometry on DO11.10-cOX40
[2] = biological target: hFcγR3a (R&D Systems 4325-FC-050/CF) (human) (UniProt P08637); test: SPR, antibody 100 nM on OX40-his chip co-injected with FcγR 500 nM
[3] = biological target: hFcγR1 (R&D Systems 1257-FC-050/CF) (human) (UniProt P12314); test: as above
[4] = biological target: hFcγR2b (R&D Systems 1460-CD-050/CF) (human) (UniProt P31994); test: as above
Sequence of hFcγR2b (R&D Systems 1460-CD-050/CF) (human) (P31994 46-217 limits assumed): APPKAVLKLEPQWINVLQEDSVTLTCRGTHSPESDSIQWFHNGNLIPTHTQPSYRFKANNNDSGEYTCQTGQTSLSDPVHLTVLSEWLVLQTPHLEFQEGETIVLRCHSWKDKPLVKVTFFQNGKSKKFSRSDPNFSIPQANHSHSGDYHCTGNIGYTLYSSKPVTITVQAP

[5] = biological target: hFcγR2a (R&D Systems 1330-CD-050/CF) (human) (UniProt P12318); test: as above
Sequence of hFcγR2a (R&D Systems 1330-CD-050/CF) (human) (P12318 36-218 limits assumed): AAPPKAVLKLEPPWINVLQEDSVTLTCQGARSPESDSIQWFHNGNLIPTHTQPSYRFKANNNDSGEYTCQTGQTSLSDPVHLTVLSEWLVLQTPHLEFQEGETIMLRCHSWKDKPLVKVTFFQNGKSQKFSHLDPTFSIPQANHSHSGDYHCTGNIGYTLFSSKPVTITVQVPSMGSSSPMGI

[6] = biological target: human OX40 expressed on DO11.10 cells (DO11.10-hOX40) (human) (UniProt P43489); test: cell-based or functional assay
Sequence of human OX40 expressed on DO11.10 cells (DO11.10-hOX40) (human) (P43489 29-277): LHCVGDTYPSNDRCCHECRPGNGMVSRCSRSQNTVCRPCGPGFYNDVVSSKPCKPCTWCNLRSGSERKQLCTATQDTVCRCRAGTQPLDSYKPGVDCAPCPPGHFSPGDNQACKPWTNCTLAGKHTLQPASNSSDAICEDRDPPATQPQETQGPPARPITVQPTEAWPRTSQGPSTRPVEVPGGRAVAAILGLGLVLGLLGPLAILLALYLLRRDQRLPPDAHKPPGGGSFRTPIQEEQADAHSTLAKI

[7] = biological target: human OX40 expressed on DO11.10 cells (DO11.10-hOX40) (human) (UniProt P43489); test: flow cytometry on DO11.10-hOX40
[8] = biological target: hFcγR3a (R&D Systems 4325-FC-050/CF) (human) (UniProt P08637); test: SPR, antibody 100 nM on CD137-his chip co-injected with FcγR 500 nM
[9] = biological target: hFcγR1 (R&D Systems 1257-FC-050/CF) (human) (UniProt P12314); test: as above
[10] = biological target: hFcγR2b (R&D Systems 1460-CD-050/CF) (human) (UniProt P31994); test: as above
[11] = biological target: hFcγR2a (R&D Systems 1330-CD-050/CF) (human) (UniProt P12318); test: as above
[12] = biological target: mouse CD137 expressed on DO11.10 cells (DO11.10-mCD137) (mouse) (UniProt P20334); test: flow cytometry on DO11.10 cells expressing the target
Sequence of mouse CD137 expressed on DO11.10 cells (DO11.10-mCD137) (mouse) (P20334 24-256): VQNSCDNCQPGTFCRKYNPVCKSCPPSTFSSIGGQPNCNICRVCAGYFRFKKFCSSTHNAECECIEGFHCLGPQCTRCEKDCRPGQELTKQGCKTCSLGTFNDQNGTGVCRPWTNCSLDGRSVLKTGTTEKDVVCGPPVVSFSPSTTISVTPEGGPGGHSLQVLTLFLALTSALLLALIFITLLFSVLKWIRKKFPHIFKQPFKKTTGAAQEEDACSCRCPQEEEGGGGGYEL

hOX40-mFc (human) = test: SPR, antibody captured via anti-human Fab, dimeric antigen flowed, 1:1 fit
Sequence of hOX40-mFc (human) (chain, as listed by the source limits assumed): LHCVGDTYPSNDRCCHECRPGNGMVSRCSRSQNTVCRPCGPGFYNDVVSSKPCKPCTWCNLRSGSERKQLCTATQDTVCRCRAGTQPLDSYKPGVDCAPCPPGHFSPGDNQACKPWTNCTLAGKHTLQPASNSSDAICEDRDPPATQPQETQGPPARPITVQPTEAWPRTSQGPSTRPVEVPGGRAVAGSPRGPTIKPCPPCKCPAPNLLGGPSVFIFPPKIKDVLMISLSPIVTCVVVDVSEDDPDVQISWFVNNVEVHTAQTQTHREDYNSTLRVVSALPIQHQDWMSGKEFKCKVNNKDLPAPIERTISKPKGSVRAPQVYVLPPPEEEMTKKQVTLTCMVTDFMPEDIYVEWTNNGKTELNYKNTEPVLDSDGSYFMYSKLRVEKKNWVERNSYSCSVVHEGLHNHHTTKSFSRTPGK

[13] = biological target: human OX40 expressed on DO11.10 cells (DO11.10-hOX40) (human) (UniProt P43489); test: flow cytometry on DO11.10 cells expressing the target
[14] = biological target: cynomolgus OX40 expressed on DO11.10 cells (DO11.10-cOX40) (cynomolgus); test: as above
[15] = biological target: mouse CD137 expressed on DO11.10 cells (DO11.10-mCD137) (mouse) (UniProt P20334); test: cell-based or functional assay

Sequence of hFcγR1 (R&D Systems 1257-FC-050/CF) (human) (P12314 16-288 limits assumed): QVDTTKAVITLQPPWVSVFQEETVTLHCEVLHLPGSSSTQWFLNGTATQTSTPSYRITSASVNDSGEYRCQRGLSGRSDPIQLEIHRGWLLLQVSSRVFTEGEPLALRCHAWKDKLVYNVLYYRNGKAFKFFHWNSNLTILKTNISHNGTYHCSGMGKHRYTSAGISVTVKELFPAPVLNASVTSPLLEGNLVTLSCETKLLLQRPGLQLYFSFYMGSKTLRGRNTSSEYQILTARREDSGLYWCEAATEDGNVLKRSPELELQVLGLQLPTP
Sequence of hFcγR3a (R&D Systems 4325-FC-050/CF) (human) (P08637 17-208 limits assumed): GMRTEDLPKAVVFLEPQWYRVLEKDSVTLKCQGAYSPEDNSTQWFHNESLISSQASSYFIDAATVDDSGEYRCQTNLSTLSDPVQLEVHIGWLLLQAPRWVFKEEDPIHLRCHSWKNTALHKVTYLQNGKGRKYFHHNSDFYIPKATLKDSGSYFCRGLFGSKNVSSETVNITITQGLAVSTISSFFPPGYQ
Sequence of cynomolgus OX40 expressed on DO11.10 cells (DO11.10-cOX40) (cynomolgus) (P43489 other isoform, or with tags, fused parts or gaps): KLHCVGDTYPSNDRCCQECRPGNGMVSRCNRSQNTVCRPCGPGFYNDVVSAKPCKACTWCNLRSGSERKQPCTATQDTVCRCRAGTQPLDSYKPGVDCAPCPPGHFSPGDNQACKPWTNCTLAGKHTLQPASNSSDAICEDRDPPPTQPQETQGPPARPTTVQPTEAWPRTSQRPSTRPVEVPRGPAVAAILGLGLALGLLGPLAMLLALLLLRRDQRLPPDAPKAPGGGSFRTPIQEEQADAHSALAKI

Row | binding response at end of association phase of FcγR [2] | binding response at end of association phase of FcγR [3] | decrease of binding response at end of dissociation phase of FcγR [3] | binding response at end of association phase of FcγR [4] | binding response at end of association phase of FcγR [5] | SEA assay (PBMC), hIL-2 max response, crosslinked [6] | SEA assay (PBMC), hIL-2 release EC50, crosslinked [6] | pan-T cell activation assay, hIL-2 max response, crosslinked [6] | pan-T cell activation assay, hIL-2 release EC50, crosslinked [6] | other results | Substance
1 | 67.3 RU | 292 RU | 203 RU | 60.9 RU | 64.5 RU | 4270 pg/mL | 0.0716 nM | 4130 pg/mL | 0.13 nM | EC50 [1]: 0.213 nM; CD4+ T cell activation assay, hIL-2 max response, crosslinked [6]: 8820 pg/mL; CD4+ T cell activation assay, hIL-2 release EC50, crosslinked [6]: 0.0813 nM; CD8+ T cell activation assay, hIL-2 max response, crosslinked [6]: 388 pg/mL; CD8+ T cell activation assay, hIL-2 release EC50, crosslinked [6]: 0.0996 nM; EC50 [7]: 0.814 nM | G1AA/11D4 (antibody)
2 |  |  |  |  |  |  |  |  |  | binding response at end of association phase of FcγR [8]: 113 RU; binding response at end of association phase of FcγR [9]: 693 RU; decrease of binding response at end of dissociation phase of FcγR [9]: 57.1 RU; binding response at end of association phase of FcγR [10]: 164 RU; binding response at end of association phase of FcγR [11]: 156 RU | G4/20H4.9 (antibody)
3 |  |  |  |  |  |  |  |  |  | EC50 [12]: 0.121 nM | G1/Lob12.3 (antibody)
4 | 143 RU | 370 RU | 46.4 RU | 89.7 RU | 123 RU | 6610 pg/mL | 0.13 nM | 6380 pg/mL | 0.0513 nM | Kd (hOX40-mFc (human)): 0.0337 nM; EC50 [13]: 0.125 nM; EC50 [14]: 0.0941 nM | G1/11D4 (antibody)
5 |  |  |  |  |  |  |  |  |  | mouse pan-T cell activation assay, mIL-2 max response, crosslinked [15]: 374 pg/mL; mouse pan-T cell activation assay, mIL-2 release EC50, crosslinked [15]: 1.18 nM | G1AA/Lob12.3 (antibody)
